Reference: patent US20150064204A1 (Amgen, published 2015)

T1: human GITR (human, UniProt Q9Y5U5 26-241)
T1 sequence: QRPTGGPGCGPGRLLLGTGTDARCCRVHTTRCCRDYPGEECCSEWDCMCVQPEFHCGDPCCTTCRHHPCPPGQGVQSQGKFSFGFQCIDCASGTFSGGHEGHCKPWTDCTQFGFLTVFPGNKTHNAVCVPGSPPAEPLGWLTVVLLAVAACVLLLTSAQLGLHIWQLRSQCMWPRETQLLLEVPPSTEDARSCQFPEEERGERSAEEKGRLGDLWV


How the values were obtained:
human GITR [1] = target: T1, human GITR; assay: cell-based or functional assay
human GITR [2] = target: T1, human GITR; assay: flow cytometry on activated human T cells

| Binder | Proliferation (Fold over CD3) (human GITR [1]) [fold over CD3] | Proliferation EC50 (human GITR [1]) [µg/mL] | EC50 (human GITR [2]) [µg/mL] |
| --- | --- | --- | --- |
| 7A10 (antibody, human IgG1, kappa, V domains shown, Parental fully human antibody; also called Ab18; SS-10944) VH: QVQLVESGGGVVQPGRSLRLSCAASGFTFSSYGMHWVRQAPGKGLEWMAVIWYVGSNKYYADSVKGRFTISRDNSKNTLYLQMNSLSAEDTAVYYCARGGELGRDYYSGMDVWGQGTTVTVSS VL: DIQMTQSPSSLSASVGDRVTITCRASQGIRNDLGWYQQKPGKAPKRLIYAASSLQSGVPSRFSGSGSGTEFTLTISSLQPEDFATYYCQQHNSYPWTFGQGTKVEIKR | 3.4 | 0.012 | 0.067 |
| 7A10v2 (antibody, human IgG1, kappa, V domains shown, Engineered variant; also called Ab40; SS-16938) VH: QVQLVESGGGVVQPGRSLRLSCAASGFTFSSYGMHWVRQAPGKGLEWMAVIWYVGSNKYYADSVKGRFTISRDNSKNTLYLQMNSLRAEDTAVYYCARGGELGRDYYSGMDVWGQGTTVTVSS VL: DIQMTQSPSSLSASVGDRVTITCRASQGIRNDLGWYQQKPGKAPKLLIYAASSLQSGVPSRFSGSGSGTEFTLTISSLQPEDFATYYCQQHNSYPWTFGQGTKVEIKR | 0.7 | 0.043 | 0.861 |
| 7A10v3 (antibody, human IgG1, kappa, V domains shown, Engineered variant; also called Ab41; SS-16939) VH: QVQLVESGGGVVQPGRSLRLSCAASGFTFSSYGMHWVRQAPGKGLEWMAVIWYVGSNKYYAESVKGRFTISRDNSKNTLYLQMNSLRAEDTAVYYCARGGELGRDYYSGMDVWGQGTTVTVSS VL: DIQMTQSPSSLSASVGDRVTITCRASQGIRNDLGWYQQKPGKAPKRLIYAASSLQSGVPSRFSGSGSGTEFTLTISSLQPEDFATYYCQQHNSYPWTFGQGTKVEIKR | 55 | 0.046 | 0.003 |
| 7A10v4 (antibody, human IgG1, kappa, V domains shown, Engineered variant; also called Ab42; SS-16940) VH: QVQLVESGGGVVQPGRSLRLSCAASGFTFSSYGMHWVRQAPGKGLEWMAVIWYVGSNKYYADTVKGRFTISRDNSKNTLYLQMNSLRAEDTAVYYCARGGELGRDYYSGMDVWGQGTTVTVSS VL: DIQMTQSPSSLSASVGDRVTITCRASQGIRNDLGWYQQKPGKAPKRLIYAASSLQSGVPSRFSGSGSGTEFTLTISSLQPEDFATYYCQQHNSYPWTFGQGTKVEIKR | 60 | 0.006 | 0.002 |
| 5H7v5 (antibody, human IgG1, kappa, V domains shown) VH: QVQLQESGPGLVKPSETLSLTCTVSGGSISSGGYFWSWIRQPPGKGLEWIGYIYYSGTTYYNPSLKSRVTISIDTSKNQFSLKLSSVTAADTAVYYCARDLFYYESSGPRGFEPWGQGTLVTVSS VL: EIVLTQSPGTLSLSPGERATLSCRASQTVSSNYLAWYQQKPGQAPRLLIYGSSTRATGIPDRFSGSGSGTDFTLTISRLEPEDFAVYYCQQYDSSPWTFGQGTKVEIKR | 1.4 | 0.021 |  |
| 5H7v1 (antibody, human IgG1, kappa, V domains shown) VH: QVQLQESGPGLVKPSETLSLTCTVSGGSISSGGYFWSWIRQPPGKGLEWIGYIYYSGTTYYNPSLKSRVTISIDTSKNQFSLKLSSVTAADTAVYYCARDLFYYESSGPRGFDPWGQGTLVTVSS VL: EIVLTQSPGTLSLSPGERATLSCRASQTVSSNYLAWYQQKPGQAPRLLIYGSSTRATGIPDRFSGSGSGTDFTLTISRLEPEDFAVYYCQQYDSSPWTFGQGTKVEIKR | 1 | 0.033 |  |
| 5H7v17 (antibody, human IgG1, kappa, V domains shown) VH: QVQLQESGPGLVKPSETLSLTCTVSGGSISSGGYFWSWIRQPPGKGLEWIGYIYYSGTTYYNPSLKSRVTISIDTSKNQFSLKLSSVTAADTAVYYCARDLFYYDTSGPRGFDPWGQGTLVTVSS VL: EIVLTQSPGTLSLSPGERATLSCRASQTVSSNYLAWYQQKPGQAPRLLIYGSSTRATGIPDRFSGSGSGTDFTLTISRLEPEDFAVYYCQQYDTSPWTFGQGTKVEIKR | 3 | 0.024 |  |
| 5H7v11 (antibody, human IgG1, kappa, V domains shown) VH: QVQLQESGPGLVKPSETLSLTCTVSGGSISSGGYFWSWIRQPPGKGLEWIGYIYYSGTTYYNPSLKSRVTISIDTSKNQFSLKLSSVTAADTAVYYCARDLFYYDSSGPRGFDPWGQGTLVTVSS VL: EIVLTQSPGTLSLSPGERATLSCRASQTVSSNYLAWYQQKPGQAPRLLIYGSSTRATGIPDRFSGSGSGTDFTLTISRLEPEDFAVYYCQQYDTSPWTFGQGTKVEIKR | 2 | 0.032 |  |
| 5H7v13 (antibody, human IgG1, kappa, V domains shown) VH: QVQLQESGPGLVKPSETLSLTCTVSGGSISSGGYFWSWIRQPPGKGLEWIGYIYYSGTTYYNPSLKSRVTISIDTSKNQFSLKLSSVTAADTAVYYCARDLFYYDTSGPRGFDPWGQGTLVTVSS VL: EIVLTQSPGTLSLSPGERATLSCRASQTVSSNYLAWYQQKPGQAPRLLIYGSSTRATGIPDRFSGSGSGTDFTLTISRLEPEDFAVYYCQQYESSPWTFGQGTKVEIKR | 1.2 | 0.113 |  |
| 5H7v10 (antibody, human IgG1, kappa, V domains shown) VH: QVQLQESGPGLVKPSETLSLTCTVSGGSISSGGYFWSWIRQPPGKGLEWIGYIYYSGTTYYNPSLKSRVTISIDTSKNQFSLKLSSVTAADTAVYYCARDLFYYDSSGPRGFDPWGQGTLVTVSS VL: EIVLTQSPGTLSLSPGERATLSCRASQTVSSNYLAWYQQKPGQAPRLLIYGSSTRATGIPDRFSGSGSGTDFTLTISRLEPEDFAVYYCQQYESSPWTFGQGTKVEIKR | 0.6 | 0.039 |  |

Second part, the binder after the results:

| Proliferation (Fold over CD3) (human GITR [1]) [fold over CD3] | Proliferation EC50 (human GITR [1]) [µg/mL] | EC50 (human GITR [2]) [µg/mL] | Binder |
| --- | --- | --- | --- |
| 0.6 | 0.02 | 0.783 | 7A10v5 (antibody, human IgG1, kappa, V domains shown, Engineered variant; also called Ab43; SS-16941) VH: QVQLVESGGGVVQPGRSLRLSCAASGFTFSSYGMHWVRQAPGKGLEWMAVIWYVGSNKYYAESVKGRFTISRDNSKNTLYLQMNSLRAEDTAVYYCARGGELGRDYYSGMDVWGQGTTVTVSS VL: DIQMTQSPSSLSASVGDRVTITCRASQGIRNDLGWYQQKPGKAPKLLIYAASSLQSGVPSRFSGSGSGTEFTLTISSLQPEDFATYYCQQHNSYPWTFGQGTKVEIKR |
| 2.2 | 0.019 | 0.423 | 9H6v2 (antibody, human IgG1, kappa, V domains shown, Engineered variant; also called Ab45; SS-16944) VH: QVQLVESGGGVVQPGRSLRLSCVASGFTFSSYGMHWIRQAPGKGLEWVAVIWYEGSNKYYADSVKGRFTISRDNSKNTLYLQMNSLRAEDTAVYYCARGGRLGKDYYSGMDVWGQGTTVTVSS VL: DIQMTQSPSSLSASVGDRVTITCRASQGIRNDLGWYQQKPGKAPKLLIYATSSLQSGVPSRFSGSGSGTEFTLTISSLQPEDFATYYCLQHNTYPWTFGQGTKVEIKR |
| 3.2 | 0.004 | 0.144 | 9H6v1 (antibody, human IgG1, kappa, V domains shown, Engineered variant; also called Ab44; SS-16943) VH: QVQLVESGGGVVQPGRSLRLSCVASGFTFSSYGMHWIRQAPGKGLEWVAVIWYEGSNKYYADSVKGRFTISRDNSKNTLYLQMNSLRAEDTAVYYCARGGRLGKDYYSGMDVWGQGTTVTVSS VL: DIQMTQSPSSLSASVGDRVTITCRASQGIRNDLGWYQQKPGKAPKRLIYATSSLQSGVPSRFSGSGSGTEFTLTISSLQPEDFATYYCLQHNTYPWTFGQGTKVEIKR |
| 1.5 | 0.011 | 0.411 | 9H6v6 (antibody, human IgG1, kappa, V domains shown, Engineered variant; also called Ab49; SS-16947) VH: QVQLVESGGGVVQPGRSLRLSCVASGFTFSSYGMHWIRQAPGKGLEWVAVIWYEGSNKYYADTVKGRFTISRDNSKNTLYLQMNSLRAEDTAVYYCARGGRLGKDYYSGMDVWGQGTTVTVSS VL: DIQMTQSPSSLSASVGDRVTITCRASQGIRNDLGWYQQKPGKAPKLLIYATSSLQSGVPSRFSGSGSGTEFTLTISSLQPEDFATYYCLQHNTYPWTFGQGTKVEIKR |
| 1.9 | 0.011 | 0.38 | 9H6v5 (antibody, human IgG1, kappa, V domains shown, Engineered variant; also called Ab48; SS-16946) VH: QVQLVESGGGVVQPGRSLRLSCVASGFTFSSYGMHWIRQAPGKGLEWVAVIWYEGSNKYYAESVKGRFTISRDNSKNTLYLQMNSLRAEDTAVYYCARGGRLGKDYYSGMDVWGQGTTVTVSS VL: DIQMTQSPSSLSASVGDRVTITCRASQGIRNDLGWYQQKPGKAPKLLIYATSSLQSGVPSRFSGSGSGTEFTLTISSLQPEDFATYYCLQHNTYPWTFGQGTKVEIKR |
| 3.3 | 0.007 | 0.095 | 9H6v4 (antibody, human IgG1, kappa, V domains shown, Engineered variant; also called Ab47; SS-16945) VH: QVQLVESGGGVVQPGRSLRLSCVASGFTFSSYGMHWIRQAPGKGLEWVAVIWYEGSNKYYADTVKGRFTISRDNSKNTLYLQMNSLRAEDTAVYYCARGGRLGKDYYSGMDVWGQGTTVTVSS VL: DIQMTQSPSSLSASVGDRVTITCRASQGIRNDLGWYQQKPGKAPKRLIYATSSLQSGVPSRFSGSGSGTEFTLTISSLQPEDFATYYCLQHNTYPWTFGQGTKVEIKR |
| 2.7 | 0.01 | 0.06 | 33C9 (antibody, human IgG1, kappa, V domains shown, Parental fully human antibody; also called Ab2; SS-12413) VH: QVQVVESGGGVVQPGRSLRLSCAASGFTFSSYGMHWVRQAPGKGLEWVSVIWYEGSNKYYADSVKGRFTISRDNSKNTLYLQMNSLRAEDTAVYYCARGGLLGYYYYYGMDVWGQGTTVTVSS VL: DIQMTQSPSSLSASVGDRVTITCRASQGIRNDLGWYQQKPGKAPKRLIYDASSLQSGVPSRFSGSGSGTEFTLTISSLQPEDFATYYCLQHHSYPWTFGQGTKVEIKR |
| 3 | 0.007 | 0.134 | 9H6 (antibody, human IgG1, kappa, V domains shown, Parental fully human antibody; also called Ab19; SS-10945) VH: QVQLVESGGGVVQPGRSLRLSCVASGFTFSSYGMHWIRQAPGKGLEWVAVIWYEGSNKYYADSVKGRFTISRDNSKNTLYLQMNSLRAEDTAVYYCARGGRLGKDYYSGMDVWGQGTTVTVSS VL: DIQMTQSPSSLSASVGDRVTITCRASQGIRNDLGWYQQKPGKAPNRLIYATSSLQSGVPSRFSGSGSGTEFTLTISSLQPEDFATYYCLQHNTYPWTFGQGTKVEIKR |
